Source: patent publication US10919943B2, “Mutant proteins enabling agrochemical control of plant gene expression” (The Regents of the University of California, priority 2016, dated 2021)
Numbering of substitutions follows the chain as printed. In names and notes the source's numbering stands.

B1: S85N: PYR1 mutant (protein, UniProt O49686 1-191, looked up, variant S85N)
Abscisic acid receptor PYR1: MPSELTPEERSELKNSIAEFHTYQLDPGSCSSLHAQRIHAPPELVWSIVRRFDKPQTYKHFIKSCSVEQNFEMRVGCTRDVIVINGLPANTSTERLDILDDERRVTGFSIIGGEHRLTNYKSVTTVHRFEKENRIWTVVLESYVVDMPEGNSEDDTRMFADTVVKLNLQKLATVAEAMARNSGDGSGSQVT
B2: S85H: PYR1 mutant (protein, UniProt O49686 1-191, looked up, variant S85H)
Abscisic acid receptor PYR1: B1 Abscisic acid receptor PYR1 with N85H
B3: S85K: PYR1 mutant (protein, UniProt O49686 1-191, looked up, variant S85K)
Abscisic acid receptor PYR1: B1 Abscisic acid receptor PYR1 with N85K
B4: S85C: PYR1 mutant (protein, UniProt O49686 1-191, looked up, variant S85C)
Abscisic acid receptor PYR1: B1 Abscisic acid receptor PYR1 with N85C
B5: S85W: PYR1 mutant (protein, UniProt O49686 1-191, looked up, variant S85W)
Abscisic acid receptor PYR1: B1 Abscisic acid receptor PYR1 with N85W
B6: S85Y: PYR1 mutant (protein, UniProt O49686 1-191, looked up, variant S85Y)
Abscisic acid receptor PYR1: B1 Abscisic acid receptor PYR1 with N85Y
B7: S85R: PYR1 mutant (protein, UniProt O49686 1-191, looked up, variant S85R)
Abscisic acid receptor PYR1: B1 Abscisic acid receptor PYR1 with N85R
B8: S85V: PYR1 mutant (protein, UniProt O49686 1-191, looked up, variant S85V)
Abscisic acid receptor PYR1: B1 Abscisic acid receptor PYR1 with N85V
B9: S85D: PYR1 mutant (protein, UniProt O49686 1-191, looked up, variant S85D)
Abscisic acid receptor PYR1: B1 Abscisic acid receptor PYR1 with N85D
B10: S85P: PYR1 mutant (protein, listed as Arabidopsis thaliana)
chain: B1 Abscisic acid receptor PYR1 with N85P
B11: S85I: PYR1 mutant (protein, UniProt O49686 1-191, looked up, variant S85I)
Abscisic acid receptor PYR1: B1 Abscisic acid receptor PYR1 with N85I
B12: S85G: PYR1 mutant (protein, UniProt O49686 1-191, looked up, variant S85G)
Abscisic acid receptor PYR1: B1 Abscisic acid receptor PYR1 with N85G
B13: S85E: PYR1 mutant (protein, UniProt O49686 1-191, looked up, variant S85E)
Abscisic acid receptor PYR1: B1 Abscisic acid receptor PYR1 with N85E
B14: S85Q: PYR1 mutant (protein, UniProt O49686 1-191, looked up, variant S85Q)
Abscisic acid receptor PYR1: B1 Abscisic acid receptor PYR1 with N85Q
B15: S85F: PYR1 mutant (protein, UniProt O49686 1-191, looked up, variant S85F)
Abscisic acid receptor PYR1: B1 Abscisic acid receptor PYR1 with N85F

tested on: HAB1; test: Yeast two hybrid of pBD-PYR1 site saturation mutants with pACT-HAB1 on 10 μM ABA, β-galactosidase staining; type: cell-based, Arabidopsis; design: key: x: Mutations in PYR1 that disrupt ABA-induced binding to PYR1 to HAB1; conditions: S. cerevisiae Y190, 10 μM ABA; dead = lack of visible staining in comparison to wild type control
Method in brief: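 S. cerevisiae Y190 co-expressing GAL4-DNA-binding-domain–PYR1 mutants and GAL4-activation-domain–HAB1 were spotted on SD (-Leu, -Trp) agar with 10 μM (+)-ABA for 2 days at 30° C. Colonies were chloroform-lysed and stained for β-galactosidase. Mutants lacking visible staining relative to wild type were scored as non-binding.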

Mutations in PYR1 that disrupt ABA-induced binding to PYR1 to HAB1 | Molecule
x | B1
x | B2
x | B3
x | B4
x | B5
x | B6
x | B7
x | B8
x | B9
x | B10
x | B11
x | B12
x | B13
x | B14
x | B15
